Test results reported in patent US20170298146A1 (MODIQUEST B V, published 2017).
Non-standard residues stand in square brackets, D forms with d. No end group written: not given here. Cit = NC(=O)NCCC[C@H](N)C(=O)O

Key:
[1] = target: T1, msFibα XG (mouse, X at position 8 is citrulline; biotin label); experiment: peptide ELISA, 0.0023 ug/well
T1 peptide: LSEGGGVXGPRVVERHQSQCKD
Description: (§1) Biotin and citrulline-containing peptides derived from fibrinogen and vimentin were immobilized on NEUTRAVIDIN®-coated 96-well ELISA plates (0.3 μg/well). CFC-1 and CFC-0 were coated at the same concentration and served as positive and negative controls respectively for specific anti-citrulline reactivity and as coating controls. Non-coated wells were used to test for aspecific binding of the antibodies. […] Detection of bound anti-citrulline antibodies was performed by incubating the wells with rabbit-anti-human-HRP (1:2000) for one hour at RT followed by incubation with TMB substrate. The resulting OD (y-axis) is a measure for antibody binding.
(§2) Biotin-labeled and citrulline-containing fibrinogen and vimentin peptides (Table 5) were also tested for reactivity with the therapeutic antibodies. Peptides were coated on 96-well NEUTRAVIDIN®-ELISA plates.

[2] = target: T2, msFibβ XG (mouse, also: biotin label); experiment: peptide ELISA, 0.0023 ug/well
T2 peptide: EPTDSLDA[Cit]GHRPVDRR
Description: as §1, §2

[3] = target: T3, msVim XS/XL (mouse, also: biotin label); experiment: peptide ELISA, 0.0023 ug/well
T3 construct: also called mouse vimentin peptide
T3 peptide: YVT[Cit]SSAV[Cit]L[Cit]SSVP
Description: as §1, §2

[4] = target: T4, msFibα XH (mouse, X at position 15 is citrulline; biotin label); experiment: peptide ELISA, 0.0023 ug/well
T4 peptide: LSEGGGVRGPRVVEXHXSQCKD
Description: as §1, §2

[5] = target: T5, huFibα XH (human, X at position 15 is citrulline; biotin label); experiment: peptide ELISA, 0.0023 ug/well
T5 peptide: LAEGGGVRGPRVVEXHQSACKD
Description: as §1, §2

[6] = target: T6, CFC-1; experiment: peptide ELISA, 0.0023 ug/well
T6 construct: Positive control for anti-citrulline reactivity; also called cfc1 XG
Description: as §1, §2

[7] = target: T7, huFibα XG (human, X at position 8 is citrulline; biotin label); experiment: peptide ELISA, 0.0023 ug/well
T7 peptide: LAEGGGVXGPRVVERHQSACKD
Description: as §1, §2

[8] = target: T8, human recombinant histone H2A (human); experiment: ELISA, 0.016 ug/well
T8 construct: Non-deiminated
Description: (§3) CFC-1 and CFC-0 were coated at the same concentration and served as positive and negative controls, respectively, for specific anti-citrulline reactivity and as coating controls. Non-coated wells were used to test for aspecific binding of the antibodies. […] Detection of bound anti-citrulline antibodies was performed by incubating the wells with rabbit-anti-human-HRP (1:2000) for one hour at RT followed by incubation with TMB substrate. The resulting OD (y-axis) is a measure for antibody binding. H1=recombinant histone 1; H1/p2=huPAD2 recombinant histone 1; H1/p4=huPAD4 recombinant histone 1 and so forth (x-axis).

[9] = target: T9, huPAD4 deiminated human recombinant histone H2A (human); experiment: ELISA, 0.016 ug/well
T9 construct: also called H2A/p4; huPAD4 deiminated histone 2A
Description: as §3

[10] = target: T10, human recombinant histone H2B (human); experiment: ELISA, 0.016 ug/well
T10 construct: Non-deiminated
Description: as §3

[11] = target: T6, CFC-1; experiment: ELISA, 0.016 ug/well
Description: as §3

[12] = target: T11, huPAD4 deiminated human recombinant histone H2B (human); experiment: ELISA, 0.016 ug/well
T11 construct: also called H2B/p4
Description: as §3

[13] = target: T12, huPAD4 deiminated human recombinant histone H3 (human); experiment: ELISA, 0.08 ug/well
T12 construct: also called H3/p4
Description: as §3

[14] = target: T13, huPAD2 deiminated human recombinant histone H2A (human); experiment: ELISA, 0.08 ug/well
T13 construct: also called H2A/p2
Description: as §3

[15] = target: T8, human recombinant histone H2A; experiment: ELISA, 0.08 ug/well
Description: as §3

[16] = target: T14, huPAD2 deiminated human recombinant histone H3 (human); experiment: ELISA, 0.08 ug/well
T14 construct: also called H3/p2
Description: as §3

[17] = target: T15, human recombinant histone H4 (human, UniProt P62805 2-103); experiment: ELISA, 0.08 ug/well
Description: as §3

[18] = target: T9, huPAD4 deiminated human recombinant …; experiment: ELISA, 0.08 ug/well
Description: as §3

[19] = target: T10, human recombinant histone H2B; experiment: ELISA, 0.08 ug/well
Description: as §3

[20] = target: T6, CFC-1; experiment: ELISA, 0.08 ug/well
Description: as §3

[21] = target: T11, huPAD4 deiminated human recombinant …; experiment: ELISA, 0.08 ug/well
Description: as §3

[22] = target: T16, huPAD2 deiminated human recombinant histone H2B (human); experiment: ELISA, 0.08 ug/well
T16 construct: also called H2B/p2
Description: as §3

[23] = target: T13, huPAD2 deiminated human recombinant …; experiment: ELISA, 0.00064 ug/well
Description: as §3

[24] = target: T8, human recombinant histone H2A; experiment: ELISA, 0.00064 ug/well
Description: as §3

[25] = target: T15, human recombinant histone H4; experiment: ELISA, 0.00064 ug/well
Description: as §3

[26] = target: T9, huPAD4 deiminated human recombinant …; experiment: ELISA, 0.00064 ug/well
Description: as §3

[27] = target: T10, human recombinant histone H2B; experiment: ELISA, 0.00064 ug/well
Description: as §3

[28] = target: T6, CFC-1; experiment: ELISA, 0.00064 ug/well
Description: as §3

[29] = target: T11, huPAD4 deiminated human recombinant …; experiment: ELISA, 0.00064 ug/well
Description: as §3

[30] = target: T16, huPAD2 deiminated human recombinant …; experiment: ELISA, 0.00064 ug/well
Description: as §3

[31] = target: T1, msFibα XG; experiment: peptide ELISA, 0.08 ug/well
Description: as §1, §2

[32] = target: T3, msVim XS/XL; experiment: peptide ELISA, 0.08 ug/well
Description: as §1, §2

[33] = target: T6, CFC-1; experiment: peptide ELISA, 0.08 ug/well
Description: as §1, §2

B1: RhmAb2.102 (antibody, human IgG1, lambda)
heavy: not shown
light: QSVLTQPPSMSAAPGQKVTISCSGSSSNIGNNYVSWYQQVPGTAPKLLIYDDNKRPSGIPGRFSGSKSATSATLGITGLQAGDEADYYCGSWDDNLSVVLFGGGTKLTVLGQPKAAPSVTLFPPSSEELQANKATLVCLISDFYPGAVTVAWKADSSPVKAGVETTTPSKQSNNKYAASSYLSLTPEQWKSHRSYSCQVTHEGSTVEKTVAPTECS
notes: Human IgG1 lambda; also called Rhm2.102
**Q.** For B1, which OD [1] is on record?
**A.** The OD was 0.125 OD.

**Q.** What about the OD [2] of the same binder?
**A.** The OD was 0.12 OD.

**Q.** And the OD [3]?
**A.** Its OD is 0.142 OD.

**Q.** And the OD [4]?
**A.** The OD was 0.085 OD.

**Q.** What about the OD [5] of the same binder?
**A.** The OD was 0.123 OD.

**Q.** What about the OD [6] of the same binder?
**A.** The OD was 0.506 OD.

**Q.** What about the OD [7] of the same binder?
**A.** The OD was 0.125 OD.

**Q.** What about the OD [8] of the same binder?
**A.** The OD was 0.057 OD.

**Q.** What about the OD [9] of the same binder?
**A.** The OD was 0.426 OD.

**Q.** What about the OD [10] of the same binder?
**A.** Its OD is 0.065 OD.

**Q.** What about the OD [11] of the same binder?
**A.** The OD was 0.702 OD.

**Q.** What about the OD [12] of the same binder?
**A.** The OD was 0.052 OD.

**Q.** What about the OD [13] of the same binder?
**A.** The OD was 0.093 OD.

**Q.** What about the OD [14] of the same binder?
**A.** The OD was 1.96 OD.

**Q.** And the OD [15]?
**A.** The OD was 0.06 OD.

**Q.** And the OD [16]?
**A.** The OD was 0.493 OD.

**Q.** And the OD [17]?
**A.** The OD was 0.067 OD.

**Q.** And the OD [18]?
**A.** The OD was 1.75 OD.

**Q.** And the OD [19]?
**A.** The OD was 0.054 OD.

**Q.** What about the OD [20] of the same binder?
**A.** Its OD is 2.15 OD.

**Q.** What about the OD [21] of the same binder?
**A.** Its OD is 0.052 OD.

**Q.** And the OD [22]?
**A.** The OD was 0.053 OD.

**Q.** And the OD [23]?
**A.** The OD was 0.077 OD.

**Q.** And the OD [24]?
**A.** The OD was 0.057 OD.

**Q.** And the OD [25]?
**A.** Its OD is 0.06 OD.

**Q.** What about the OD [26] of the same binder?
**A.** The OD was 0.075 OD.

**Q.** What about the OD [27] of the same binder?
**A.** Its OD is 0.052 OD.

**Q.** What about the OD [28] of the same binder?
**A.** Its OD is 0.077 OD.

**Q.** What about the OD [29] of the same binder?
**A.** The OD was 0.055 OD.

**Q.** And the OD [30]?
**A.** Its OD is 0.052 OD.

**Q.** What about the OD [31] of the same binder?
**A.** The OD was 0.237 OD.

**Q.** And the OD [32]?
**A.** Its OD is 0.515 OD.

**Q.** What about the OD [33] of the same binder?
**A.** Its OD is 3.03 OD.
